Where a chain is given by its changes, count along the chain named.
B1: clone 3 (PFFF) (Fab, V domains shown)
VH: QVTLRESGPALVKPTQTLTLTCTFSGFSLSTPGMSVGWIRQPPGKALEWLADIWWDDKKDYNPSLKSRLTISKDTSKNQVVLKVTNMDPADTATYYCARSMITNFYFDVWGQGTTVTVSS
VL: DIQMTQSPSTLSASVGDRVTITCSASSSVGYMHWYQQKPGKAPKLLIYDTFKLASGVPSRFSGSGSGTEFTLTISSLQPDDFATYYCFQGSFYPFTFGGGTKVEIK
notes: also called 3 (n = 3)
B2: clone 22 (AFFF) (Fab, V domains shown)
VH: B1 VH with P32A
VL: B1 VL
notes: also called 4D2-7
B3: clone 2 (AFFG) (Fab, V domains shown)
VH: B1 VH with P32A
VL: B1 VL with F92G
B4: clone 1 (AFSF) (Fab, V domains shown)
VH: B1 VH with P32A
VL: B1 VL with F51S
B5: clone 23 (AFFY) (Fab, V domains shown)
VH: B1 VH with P32A
VL: B1 VL with F92Y
B6: clone 17 (PWSW) (antibody, V domains shown)
VH: B1 VH with F105W
VL: B1 VL with F51S, F92W
B7: clone 4 (PFFY) (antibody, V domains shown)
VH: B1 VH
VL: B1 VL with F92Y
notes: also called 4 (n = 3)
B8: 16 (antibody, V domains shown)
VH: B1 VH with P32A, F105W
VL: B1 VL with F51S, F92G
notes: also called AWSG
B9: clone 6 (PFYF) (antibody, V domains shown)
VH: B1 VH
VL: B1 VL with F51Y
B10: IX-493 (SWSG), basic or reference antibody (Fab, V domains shown)
VH: B1 VH with P32S, F105W
VL: B1 VL with F51S, F92G
notes: also called basic antibody
B11: clone 5 (PFFW) (antibody, V domains shown)
VH: B1 VH
VL: B1 VL with F92W
notes: also called 5 (n = 3)
B12: clone 20 (SFSF) (antibody, V domains shown)
VH: B1 VH with P32S
VL: B1 VL with F51S
B13: clone 18 (SFFG) (antibody, V domains shown)
VH: B1 VH with P32S
VL: B1 VL with F92G
notes: also called 18 (n = 2)
B14: clone 15 (AFSG) (antibody, V domains shown)
VH: B1 VH with P32A
VL: B1 VL with F51S, F92G
notes: also called 15 (n = 2)
B15: clone 9 (PFSW) (antibody, V domains shown)
VH: B1 VH
VL: B1 VL with F51S, F92W
notes: also called 9 (n = 2)
B16: clone 7 (PFFG) (antibody, V domains shown)
VH: B1 VH
VL: B1 VL with F92G
notes: also called 7 (n = 4)
B17: clone 16 (PFSG) (antibody, V domains shown)
VH: B1 VH
VL: B1 VL with F51S, F92G
notes: also called 16 (n = 2)
B18: clone 19 (SFSW) (antibody, V domains shown)
VH: B1 VH with P32S
VL: B1 VL with F51S, F92W
B19: clone 12 (PWFF) (antibody, V domains shown)
VH: B1 VH with F105W
VL: B1 VL
notes: also called 12 (n = 2)
B20: clone 10 (PFSF) (antibody, V domains shown)
VH: B1 VH
VL: B1 VL with F51S
B21: clone 13 (SFFF) (antibody, V domains shown)
VH: B1 VH with P32S
VL: B1 VL
notes: also called 13 (n = 3)
B22: clone 14 (SFFW) (antibody, V domains shown)
VH: B1 VH with P32S
VL: B1 VL with F92W
B23: clone 21 (SWYF) (antibody, V domains shown)
VH: B1 VH with P32S, F105W
VL: B1 VL with F51Y
B24: clone 11 (PWFW) (antibody, V domains shown)
VH: B1 VH with F105W
VL: B1 VL with F92W

target: T1, RSV F protein (C-terminal truncated F protein secreted from a recombinant baculovirus) (respiratory syncytial virus (RSV), UniProt P03420 26-524); experiment: SPR (BIAcore), F protein immobilized by EDC/NHS, Fab injected; calculated from the rate constants
T1 construct: also called F antigen; RSV F antigen
T1 sequence (P03420 26-109, chain 1 of 2): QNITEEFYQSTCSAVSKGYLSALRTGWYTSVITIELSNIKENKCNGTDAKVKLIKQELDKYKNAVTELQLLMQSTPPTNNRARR
T1 sequence (P03420 137-524, chain 2 of 2): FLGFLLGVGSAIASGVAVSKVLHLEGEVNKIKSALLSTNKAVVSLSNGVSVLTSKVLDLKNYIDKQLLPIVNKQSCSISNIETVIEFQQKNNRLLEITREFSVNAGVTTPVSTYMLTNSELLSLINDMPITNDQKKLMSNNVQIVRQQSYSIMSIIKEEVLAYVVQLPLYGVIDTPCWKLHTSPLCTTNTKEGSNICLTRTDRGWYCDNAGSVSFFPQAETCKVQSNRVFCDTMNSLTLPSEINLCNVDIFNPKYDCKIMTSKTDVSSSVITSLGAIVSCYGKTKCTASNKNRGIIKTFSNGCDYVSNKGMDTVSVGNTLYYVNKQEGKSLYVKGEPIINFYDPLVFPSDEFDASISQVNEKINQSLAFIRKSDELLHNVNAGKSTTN

Row | Binder | Ka
1 | B1 | 8.15e+10 M⁻¹
2 | B2 | 3.62e+11 M⁻¹
3 | B3 | 7.31e+10 M⁻¹
4 | B4 | 6.98e+10 M⁻¹
5 | B5 | 4.03e+11 M⁻¹

target: T1, RSV F protein (C-terminal truncated F …); experiment: ELISA titration of antibody on RSV F antigen, O.D. 560

Row | Binder | EC50 (read off the curve)
6 | B6 | ~0.04 µg/mL
7 | B7 | ~0.01 µg/mL
8 | B8 | ~0.03 µg/mL
9 | B9 | ~0.02 µg/mL
10 | B10 | ~0.2 µg/mL

target: T1, RSV F protein (C-terminal truncated F …); experiment: SPR (BIAcore), F protein immobilized by EDC/NHS, Fab injected; kon and koff measured separately

Row | Binder | koff | kon
11 | B1 | 1.35e-06 s⁻¹ | 110000 M⁻¹ s⁻¹
12 | B2 | 3.7e-07 s⁻¹ | 134000 M⁻¹ s⁻¹
13 | B3 | 1.82e-06 s⁻¹ | 133000 M⁻¹ s⁻¹
14 | B4 | 1.62e-06 s⁻¹ | 113000 M⁻¹ s⁻¹
15 | B5 | 3.03e-07 s⁻¹ | 122000 M⁻¹ s⁻¹

target: T1, RSV F protein (C-terminal truncated F …); experiment: SPR (BIAcore), from the kinetic constants of Table 4

Row | Binder | Kd
16 | B1 | ~0.0123 nM
17 | B2 | ~0.0028 nM
18 | B3 | ~0.0137 nM
19 | B4 | ~0.0143 nM
20 | B5 | ~0.0025 nM

target: T1, RSV F protein (C-terminal truncated F …); experiment: ELISA titration of antibody on 500 ng RSV F antigen; qualitative score from titration curves

Row | Binder | Ag Score
21 | B1 | 4 arbitrary score 0-4
22 | B11 | 3.5 arbitrary score 0-4
23 | B6 | 2 arbitrary score 0-4
24 | B7 | 3.5 arbitrary score 0-4
25 | B12 | 2 arbitrary score 0-4
26 | B13 | 2 arbitrary score 0-4
27 | B14 | 2.5 arbitrary score 0-4
28 | B15 | 3 arbitrary score 0-4
29 | B16 | 3 arbitrary score 0-4
30 | B17 | 2 arbitrary score 0-4
31 | B18 | 2 arbitrary score 0-4
32 | B19 | 2.5 arbitrary score 0-4
33 | B20 | 3 arbitrary score 0-4
34 | B3 | 4 arbitrary score 0-4
35 | B4 | 4 arbitrary score 0-4
36 | B21 | 2.5 arbitrary score 0-4
37 | B22 | 2.5 arbitrary score 0-4
38 | B9 | 3.5 arbitrary score 0-4
39 | B10 | 0.1 arbitrary score 0-4
40 | B23 | 2 arbitrary score 0-4
41 | B24 | 3 arbitrary score 0-4

— patent US20100266614A1 (AstraZeneca / MedImmune, published 2010)
